Experimental data: patent US5204445A, “Peptides and antibodies that inhibit integrin-ligand binding” (The Scripps Research Institute, priority 1989, dated 1993)

Tests used:
beta subunit (GPIIIa) = biological target: T1, beta subunit (GPIIIa) (Homo sapiens, UniProt P05106+P08514); test: Chemical crosslinking of 125I-labeled RGD peptide to platelets (BS3), SDS-PAGE and autoradiography; format: binding; conditions: 125I-Fn-7 20 μM, thrombin-stimulated platelets, 45 min at 22° C., BS3 0.2 mM
T1 construct: Platelets were isolated from fresh human blood collected into acid/citrate/dextrose; endogenous in cells; host or cells: washed human platelets, thrombin-stimulated or nonstimulated
Description: FIG. 2 illustrates the results of the crosslinking of an RGD peptide to discrete sites in the beta subunit (GPIIIa) of an Integrin adhesion receptor. The ^125 I-labeled RGD peptide, Fn-7 (20 μM), was bound to platelet (6×10^8 /ml) for 45 min at 22° C., and crosslinked with BS^3 (0.2 mM). The fragmentation patterns after proteolysis were analyzed by SDS-PAGE [Laemmli, Nature. 227:680 (1970)] and autoradiography. […] Lanes 2-7, GPIIIa:Fn-7 bands were excised from gels, subjected to proteolysis and then analyzed by SDS-PAGE (15% gels, reducing conditions). For lanes 2-5, GPIIIA:Fn-7 bands were excised and digestions with V-8 protease were performed within the gel slices as described in Cleveland et al., J. Biol. Chem., 252:1102 (1977).
Platelet binding of Fn-7 followed the protocols previously described for measuring platelet interactions with adhesive proteins and with this and other peptides. See, Ginsberg et al., J. Biol. Chem., 260:3931-3936 (1985); Lam et al , Fed. Proc. Fed. Am. Soc. Exp. Biol., 44:1126 (1985); and Marguerie et al., supra. […]
The cell-bound ligand was recovered by centrifugation through 20% sucrose, and the cells were extracted in PBS containing 1% Nonidet P40 and […] N-ethylmaleimide (Sigma). […] The cross-linked samples were analyzed by electrophoresis (SDS-PAGE) on polyacrylamide vertical slab gels in the buffer system of Laemmli, Nature, […] (1970). […]

alpha subunit (GPIIb) = biological target: T2, alpha subunit (GPIIb) (Homo sapiens, UniProt P05106+P08514); test: as above; format: binding; conditions: 125I-Fn-7 20 μM, thrombin-stimulated platelets, 45 min at 22° C., BS3 0.2 mM
T2 construct: Platelets were isolated from fresh human blood collected into acid/citrate/dextrose; endogenous in cells; host or cells: washed human platelets, thrombin-stimulated

“KYGRRGDS [Fn-7, RGD-peptide with lysine for crosslinking and tyrosine for radioiodination]” was tested, and the “crosslinking to the beta subunit (GPIIIa)” value (beta subunit (GPIIIa)) was “predominance” and the “crosslinking to the alpha subunit (GPIIb)” value (alpha subunit (GPIIb)) was “more minor crosslinking”.
